# Data taken from the supplement of paper PMC7877785.
# ± gives the uncertainty stated by the source.
# Assay: self-splicing fitness, log relative to wild type (ln ratio); higher = more splicing; Tetrahymena group I intron in knt gene, E. coli kanamycin selection, DiMSum; sequences stand for … in CUCUCU…GGAGGGAAAAGUUAUCAGGCAUGCACCUGGUAGCUAGUCUUUAAACCAAUAGAUUGCAUCGGUUUAAAAGGCAAGACCGUCAAAUUGCGGGAAAGGGGUCAACAGCCGUUCAGUACCAAGUCUCAGGGGAAACUUUGAGAUGGCCUUGCAAAGGGUAUGGUAAUAAGCUGACGGACAUGGUCCUAACCACGCAGCCAAGUCCUAAGUCAACAGAUCUUCUGUUGAUAUGGAUGCAGUUCACAGACUAAAUGUCGGUCGGGGAAGAUGUAUUCUUCUCAUAAGAUAUAGUCGGACCUCUCCUUAAUGGGAGCUAGCGGAUGAAGUGAUGCAACACUGGAGCCGCUGGGAACUAAUUUGUAUGCGAAAGUAUAUUGAUUAGUUUUGGAGUACUCGUGGUCG
# How it was run: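 Fitness was computed with DiMSum as the error-weighted combination of replicate fold changes, kanamycin versus none, each normalised to wild type. The library randomised all eight intron nucleotides of the P1ex region, with the intron placed in the knt kanamycin-resistance gene on pET-22b(+) in E. coli BL21(DE3). Six replicate transformations were grown overnight at 37°C or 30°C on LB agar with or without 25 μg/mL kanamycin, plus 100 μg/mL carbenicillin, 50 μM IPTG and 0.2% rhamnose. Pooled colonies were amplicon-sequenced on an Illumina HiSeq 2500.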
Sequence,self-splicing fitness (ln) (30 °C),self-splicing fitness (ln) (37 °C)
AUUUAGCAAUAUUACGAAAA,-1.99 ± 0.26,-1.01 ± 0.23
AUUUAGCAAUAUUACGAACU,0.198 ± 0.13,0.211 ± 0.14
AUUUAGCAAUAUUACGAAUU,-3.21 ± 0.35,-1.85 ± 0.38
AUUUAGCAAUAUUACGACAA,-1.36 ± 0.2,-0.936 ± 0.22
AUUUAGCAAUAUUACGACCC,-1.16 ± 0.28,-0.0521 ± 0.3
AUUUAGCAAUAUUACGAUUU,-0.123 ± 0.12,0.23 ± 0.13
AUUUAGCAAUAUUACGCAAG,-2.59 ± 0.32,-0.488 ± 0.14
AUUUAGCAAUAUUACGCACC,-1.01 ± 0.18,-0.21 ± 0.2
AUUUAGCAAUAUUACGCAUC,-3.58 ± 0.19,-3.27 ± 0.32
AUUUAGCAAUAUUACGCAUU,-1.7 ± 0.11,-0.617 ± 0.13
AUUUAGCAAUAUUACGCCUC,,-0.949 ± 0.27
AUUUAGCAAUAUUACGCGAA,-3.01 ± 0.21,-0.549 ± 0.16
AUUUAGCAAUAUUACGCGCG,-1.28 ± 0.2,-0.257 ± 0.22
AUUUAGCAAUAUUACGCGUA,-1.36 ± 0.12,-1 ± 0.14
AUUUAGCAAUAUUACGCUAG,-0.961 ± 0.097,-0.937 ± 0.12
AUUUAGCAAUAUUACGCUAU,-3.64 ± 0.3,-0.748 ± 0.23
AUUUAGCAAUAUUACGCUUC,-2.33 ± 0.5,
AUUUAGCAAUAUUACGGCUU,-0.173 ± 0.12,0.0373 ± 0.15
AUUUAGCAAUAUUACGGGAA,-2.24 ± 0.26,-1.84 ± 0.19
AUUUAGCAAUAUUACGGGAG,-2.97 ± 0.41,-0.342 ± 0.16
AUUUAGCAAUAUUACGGUAA,-1.59 ± 0.17,-1.54 ± 0.17
AUUUAGCAAUAUUACGGUAU,-1.51 ± 0.088,-0.753 ± 0.089
AUUUAGCAAUAUUACGGUCU,-0.911 ± 0.1,-0.391 ± 0.15
AUUUAGCAAUAUUACGUACC,-0.819 ± 0.45,-1.04 ± 0.31

Sequence,self-splicing fitness (ln) (30 °C),self-splicing fitness (ln) (37 °C)
AUUUAGCAAUAUUACGUCUA,-0.829 ± 0.15,0.0394 ± 0.15
AUUUAGCAAUAUUACGUGAA,-2.53 ± 0.14,-0.614 ± 0.12
AUUUAGCAAUAUUACGUUGG,-3.51 ± 0.2,-2.62 ± 0.22
AUUUAGCAAUAUUACGUUUA,-1.97 ± 0.19,-1.07 ± 0.21
CAAAAGCAAUAUUACGAAAU,-3.75 ± 0.17,-2.89 ± 0.23
CAAAAGCAAUAUUACGAAGA,-2.23 ± 0.28,-1.43 ± 0.17
CAAAAGCAAUAUUACGACCA,-1.95 ± 0.2,-1.48 ± 0.19
CAAAAGCAAUAUUACGACGA,-0.512 ± 0.09,-0.343 ± 0.094
CAAAAGCAAUAUUACGAUAA,-2.29 ± 0.1,-0.871 ± 0.099
CAAAAGCAAUAUUACGAUCA,-1.42 ± 0.12,-1.25 ± 0.12
CAAAAGCAAUAUUACGAUCU,-2.14 ± 0.078,-0.593 ± 0.09
CAAAAGCAAUAUUACGAUUA,-0.53 ± 0.084,-0.187 ± 0.087
CAAAAGCAAUAUUACGCACU,-1.57 ± 0.091,-0.654 ± 0.089
CAAAAGCAAUAUUACGCCCA,-1.69 ± 0.21,-0.538 ± 0.2
CAAAAGCAAUAUUACGCCGG,-0.401 ± 0.098,-0.104 ± 0.13
CAAAAGCAAUAUUACGCCUC,-3.57 ± 0.29,-1.76 ± 0.25
CAAAAGCAAUAUUACGCGGU,-3.58 ± 0.2,-2.46 ± 0.24
CAAAAGCAAUAUUACGCUAA,-3.66 ± 0.25,-2.1 ± 0.21
CAAAAGCAAUAUUACGCUAG,-3.12 ± 0.12,-2.26 ± 0.14
CAAAAGCAAUAUUACGGCAA,-1.96 ± 0.17,-0.93 ± 0.14
CAAAAGCAAUAUUACGGCAC,-2.9 ± 0.14,-2.09 ± 0.15
CAAAAGCAAUAUUACGGCAG,0.126 ± 0.077,-0.164 ± 0.089
CAAAAGCAAUAUUACGGCCU,-1.44 ± 0.14,-1.25 ± 0.12
CAAAAGCAAUAUUACGGCGG,-0.363 ± 0.061,-0.395 ± 0.079

Sequence,self-splicing fitness (ln) (30 °C),self-splicing fitness (ln) (37 °C)
CAAAAGCAAUAUUACGGCUA,-0.892 ± 0.088,-0.809 ± 0.083
CAAAAGCAAUAUUACGGUAA,-1.91 ± 0.12,-1.45 ± 0.15
CAAAAGCAAUAUUACGGUGU,-4.34 ± 0.22,-2.36 ± 0.19
CAAAAGCAAUAUUACGUACC,-2.56 ± 0.15,-1.33 ± 0.15
CAAAAGCAAUAUUACGUUAC,-3.12 ± 0.22,-2.33 ± 0.23
CAAAAGCAAUAUUACGUUAG,-1.57 ± 0.064,-0.632 ± 0.084
CAAAAGCAAUAUUACGUUCG,-0.43 ± 0.051,0.246 ± 0.066
CAAAAGCAAUAUUACGUUGG,-2.47 ± 0.088,-1.48 ± 0.1
CAACAGCAAUAUUACGAAAC,-3.87 ± 0.2,-2.01 ± 0.17
CAACAGCAAUAUUACGAAAG,-0.908 ± 0.053,0.316 ± 0.079
CAACAGCAAUAUUACGAAUG,-1.04 ± 0.058,-0.229 ± 0.074
CAACAGCAAUAUUACGACAC,-2.93 ± 0.18,-1.79 ± 0.18
CAACAGCAAUAUUACGACCU,-1.18 ± 0.12,-0.29 ± 0.12
CAACAGCAAUAUUACGACUA,-1.35 ± 0.1,-0.653 ± 0.092
CAACAGCAAUAUUACGAGGA,-3.65 ± 0.25,-0.828 ± 0.1
CAACAGCAAUAUUACGAUCA,-1.6 ± 0.097,-1.33 ± 0.12
CAACAGCAAUAUUACGCAAU,-2.87 ± 0.16,-1.87 ± 0.15
CAACAGCAAUAUUACGCGAU,-5.11 ± 0.45,-2.63 ± 0.23
CAACAGCAAUAUUACGCUCA,-1.15 ± 0.096,-1.4 ± 0.12
CAACAGCAAUAUUACGGAAU,-2.96 ± 0.14,-3.05 ± 0.2
CAACAGCAAUAUUACGGAGG,-1.33 ± 0.048,-0.382 ± 0.065
CAACAGCAAUAUUACGGAUA,-3.38 ± 0.17,-2.14 ± 0.15
CAACAGCAAUAUUACGGCAA,-1.45 ± 0.13,-1.28 ± 0.12
CAACAGCAAUAUUACGGUGA,-1.58 ± 0.071,-0.727 ± 0.084

Sequence,self-splicing fitness (ln) (30 °C),self-splicing fitness (ln) (37 °C)
CAACAGCAAUAUUACGGUGU,-3.34 ± 0.12,-2.55 ± 0.14
CAACAGCAAUAUUACGGUUU,-0.644 ± 0.045,0.183 ± 0.056
CAACAGCAAUAUUACGUACA,-2.28 ± 0.11,-1.12 ± 0.093
CAACAGCAAUAUUACGUCCC,-1.72 ± 0.14,-1.46 ± 0.2
CAACAGCAAUAUUACGUGUC,-2.82 ± 0.13,-2.04 ± 0.14
CAAGAGCAAUAUUACGAAGU,-3.86 ± 0.34,-2.3 ± 0.33
CAAGAGCAAUAUUACGAAUU,-3.25 ± 0.17,-2.64 ± 0.32
CAAGAGCAAUAUUACGACCG,-0.953 ± 0.13,-0.89 ± 0.14
CAAGAGCAAUAUUACGACGA,-3.01 ± 0.2,-1.77 ± 0.23
CAAGAGCAAUAUUACGACUU,-2.96 ± 0.12,-1.46 ± 0.12
CAAGAGCAAUAUUACGAUGA,-3.62 ± 0.33,-0.971 ± 0.17
CAAGAGCAAUAUUACGCAAA,-2.46 ± 0.24,-2.56 ± 0.41
CAAGAGCAAUAUUACGCAAG,-3.06 ± 0.17,-1.99 ± 0.17
CAAGAGCAAUAUUACGCAAU,-3.31 ± 0.44,-1.52 ± 0.22
CAAGAGCAAUAUUACGCACA,-2.72 ± 0.36,-1.53 ± 0.43
CAAGAGCAAUAUUACGCCUG,-1.47 ± 0.21,-2.17 ± 0.32
CAAGAGCAAUAUUACGCGCC,-3.44 ± 0.37,-1.74 ± 0.42
CAAGAGCAAUAUUACGCGUC,-2.16 ± 0.17,-2.23 ± 0.23
CAAGAGCAAUAUUACGCGUG,-4.13 ± 0.3,-1.6 ± 0.16
CAAGAGCAAUAUUACGCUUU,-3.3 ± 0.19,-2.58 ± 0.18
CAAGAGCAAUAUUACGGAAA,-2.9 ± 0.22,-2.82 ± 0.22
CAAGAGCAAUAUUACGGAGU,-3.12 ± 0.18,-2.55 ± 0.22
CAAGAGCAAUAUUACGGCCG,-0.899 ± 0.13,-0.536 ± 0.17
